Patent US10155796B2, “Compositions and methods for inhibiting tumor cells by inhibiting the transcription factor ATF5” (The Trustees of Columbia University in the City of New York, priority 2013, dated 2018)

Assays:
DDIT3 (CHOP) = experiment: Western immunoblotting for CHOP in various tumor cell lines; assay type: cell-based; settings: times and doses per FIG. 15
Protocol: Cells were treated with TAT-d/n-ATF5 for the indicated times at the indicated doses (in μM) and then harvested and analyzed by Western immunoblotting for expression of CHOP and other non-responsive proteins.
TAT-d/n-ATF5 (TAT-ZIP) peptide induces expression of the pro-death gene DDIT3 (CHOP) in various tumor cell lines. Cells were treated with TAT-d/n-ATF5 for the times and doses (in μM) indicated in FIG. 15 and then harvested and analyzed by Western immunoblotting for expression of CHOP and other non-responsive proteins.

endogenous ATF5 = experiment: Western immunoblotting for endogenous ATF5 in U373 glioblastoma cells; assay type: cell-based, human; settings: 17 hrs
Chain of endogenous ATF5 (Q9Y2D1 208-282 limits assumed): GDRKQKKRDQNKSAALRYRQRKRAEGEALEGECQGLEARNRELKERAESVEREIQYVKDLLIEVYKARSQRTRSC
Protocol: TAT-linked dominant-negative ATF5 peptide at the indicated concentrations (in μM) was added to medium of U373 glioblastoma cells for 17 hrs day and the cells were then harvested and analyzed by Western immunoblotting for levels of endogenous ATF5. […] As previous studies have shown that tumor cells require endogenous ATF5 to survive, the mechanism of action by which the cell-penetrating TAT-ZIP peptide kills may be by causing loss of the endogenous ATF5 protein. Note also the smear above the endogenous ATF5 when the TAT-ZIP peptide is present.
TAT-linked dominant-negative ATF5 peptide was added to medium of U373 glioblastoma cells at the concentrations (in μM) indicated in FIG. 14 for 17 hrs day and the cells were then harvested and analyzed by Western immunoblotting for levels of endogenous ATF5. […] As previous studies have shown that tumor cells require endogenous ATF5 to survive, but without being bound by theory, the mechanism of action by which the cell-penetrating TAT-ZIP peptide kills may be by causing loss of the endogenous ATF5 protein. Note also the smear above the endogenous ATF5 when the TAT-ZIP peptide is present.

MEL501 melanoma cells = experiment: Apoptotic nuclei (Hoescht dye) in melanoma cells; assay type: cell-based, human; settings: four days, concentrations in μM per FIG. 13
Protocol: TAT-linked dominant-negative ATF5 peptide at the indicated concentrations (in μM) was added to medium of MEL501 melanoma cells. Four days later the cells were stained with Hoescht dye and the cells were stained for proportion with apoptotic nuclei.
TAT-linked dominant-negative ATF5 peptide was added to medium of MEL501 melanoma cells at the concentrations (in μM) indicated in FIG. 13. Four days later the cells were stained with Hoescht dye and the cells were stained for proportion with apoptotic nuclei.

MSG Cells = experiment: Cell viability, MTA assay; assay type: cell-based, mouse; settings: 3 μM, 3-5 days
Protocol: (§1) FIG. 19 depicts recombinant TAT-d/n-ATF5 (3 μM) treatment for 3-5 days decreasing viability of two human and one mouse GMB cell line as established by MTA assay.

U87 cells = experiment: Apoptotic nuclei in U87 cells after CHOP silencing with siRNA; assay type: cell-based, human; settings: siCHOP versus control siRNA, then peptide for 2 days
Protocol: Cells were treated with siCHOP to silence CHOP expression (top Western immunoblot) or with control siRNA. They were then exposed to TAT-d/n-ATF5 for 2 days and assessed for proportion of cells with apoptotic nuclei. The data support the idea that part of the mechanism by which TAT-d/n-ATF5 kills tumor cells is by increasing their expression of CHOP which in turn mediates death.
Cells were treated with siCHOP to silence CHOP expression (top Western immunoblot of FIG. 16) or with control siRNA. They were then exposed to TAT-d/n-ATF5 for 2 days and assessed for proportion of cells with apoptotic nuclei.

[1] = tested on: U373 (human glioblastoma); experiment: Cell line susceptibility testing; assay type: cell-based; settings: 1-3 μM range
Protocol: (§2) For example, but not by way of limitation, cell lines shown through testing to be susceptible to TAT-d/n-ATF5 (1-3 μM range) include: U87 (human glioblastoma); U373 (human glioblastoma); LN229 (human glioblastoma); C6 (rat glioblastoma); Mel501 (human melanoma); H2452 (human mesothelioma); MDA-MB-468 (human breast cancer). In addition, a non-limiting list of cell lines shown through testing to be susceptible to PEN-d/n-ATF5 (3 μM) include: Panc-1 (human pancreatic cancer); SH-SYSY (human neuroblastoma cells); and HCT-116 (colon-carcinoma cancer). The method of the present invention can be performed in vitro as well as in vivo in a subject. As used herein, “apoptosis” refers to cell death which is wholly or partially genetically controlled.

[2] = tested on: MDA-MB-468 (human breast cancer); experiment: Cell line susceptibility testing; assay type: cell-based; settings: 1-3 μM range
Protocol: as §2

[3] = tested on: LN229 (human glioblastoma); experiment: Cell line susceptibility testing; assay type: cell-based; settings: 1-3 μM range
Protocol: as §2

C6 (rat glioblastoma) = experiment: Cell line susceptibility testing; assay type: cell-based; settings: 1-3 μM range
Protocol: as §2

U87 (human glioblastoma) = experiment: Cell line susceptibility testing; assay type: cell-based; settings: 1-3 μM range
Protocol: as §2

Mel501 (human melanoma) = experiment: Cell line susceptibility testing; assay type: cell-based; settings: 1-3 μM range
Protocol: as §2

[4] = tested on: H2452 (human mesothelioma); experiment: Cell line susceptibility testing; assay type: cell-based; settings: 1-3 μM range
Protocol: as §2

U87 glioblastoma cells = experiment: Combination with temozolomide: apoptotic nuclei in U87 cells; assay type: cell-based, human; settings: one day, sub-lethal TZIP 1 μM and TMZ 50 μM, separately or in combination
Protocol: Cells were cultured for one day with sub-lethal levels of TAT-d/n-ATF5 (TZIP 1 μM) and TMZ (50 μM) either separately or in combination, and then assessed for proportion of cells with apoptotic nuclei. TMZ is presently the first-line treatment for human GBM. The data reveal that TAT-d/n-ATF5 not only functions in presence of TMZ, but that the two drugs act in synergy to kill GBM cells.
As outlined in FIG. 18, cells were cultured for one day with sub-lethal levels of TAT-d/n-ATF5 (TZIP 1 μM) and TMZ (50 μM) either separately or in combination, and then assessed for proportion of cells with apoptotic nuclei. TMZ is presently the first-line treatment for human GBM. The data reveal that TAT-d/n-ATF5 not only functions in presence of TMZ, but that the two drugs act in synergy to kill GBM cells.

[5] = tested on: U87 human glioblastoma cells; experiment: Cell viability, MTA assay; assay type: cell-based
Protocol: as §1
FIG. 20 depicts synthetic PEN-d/n-ATF5 treatment decreasing cell viability of cultured U87 human glioblastoma cells as established by MTA assay. 5 days treatment at indicated concentrations (μM).
5 days treatment at indicated concentrations (μM), as detected using an MTA assay.

BCL2 survival protein = experiment: Western immunoblotting for BCL2 in U87 cells; assay type: cell-based, human; settings: 30 hrs
Protocol: Cultured U87 human glioblastoma cells were treated with the indicated concentrations of TATZIP (TAT-d/n-ATF5 peptide) (in μM) for 30 hrs. The cells were then harvested and assessed by Western immunoblotting for expression of the survival protein BCL2. These findings indicate that in addition to elevating pro-death CHOP, TAT-d/n-ATF5 may also kill tumor cells by reducing their levels of the BCL2 survival protein.
As outlined in FIG. 17, cultured U87 human glioblastoma cells were treated with the indicated concentrations of TATZIP (TAT-d/n-ATF5 peptide) (in μM) for 30 hrs. The cells were then harvested and assessed by Western immunoblotting for expression of the survival protein BCL2. These findings indicate that in addition to elevating pro-death CHOP, TAT-d/n-ATF5 may also kill tumor cells by reducing their levels of the BCL2 survival protein.

U373 = experiment: Cell viability, MTA assay; assay type: cell-based, human; settings: 3 μM, 3-5 days
Protocol: as §1

[6] = tested on: U87 human glioblastoma cells; assay type: cell-based
From the text: FIG. 21 depicts recombinant TAT-d/n-ATF5 treatment promoting death of cultured U87 human glioblastoma cells as indicated by Annexin V/PI staining and flow cytometry. Proportions of viable cells are shown in lower left quadrant (88% control vs 58% treated). Dying cell proportions are in the lower right and upper right quadrants (9% in controls vs 36% in treated).
As outlined in FIG. 21, Recombinant TAT-d/n-ATF5 promotes death of cultured U87 human glioblastoma cells as indicated by Annexin V/PI staining and flow cytometry. Proportions of viable cells are shown in lower left quadrant (88% control vs 58% treated). Dying cell proportions are in the lower right and upper right quadrants (9% in controls vs 36% in treated).

[7] = tested on: primary GS9-6 human glioblastoma stem cells; experiment: Annexin V/PI staining and flow cytometry of spheres; assay type: cell-based; settings: 6 days of treatment
From the text: FIG. 22 depicts synthetic PEN-d/n-ATF5 promoting apoptotic death of primary GS9-6 human glioblastoma stem cells growing in culture as spheres. 6 days of treatment and data determined by Annexin V/PI staining and flow cytometry
FIG. 23 depicts recombinant PEN-d/n-ATF5 promoting apoptotic death of primary GS9-6 human glioblastoma stem cells growing in culture as spheres. 5 days of treatment and data determined by Annexin V/PI staining and flow cytometry.
Data reflects 6 days of treatment. Data determined by Annexin V/PI staining and flow cytometry.
5 days treatment. Data determined by Annexin V/PI staining and flow cytometry.

| Molecule | expression of CHOP (DDIT3 (CHOP)) | levels of endogenous ATF5 (endogenous ATF5) | proportion of cells with apoptotic nuclei (MEL501 melanoma cells) | cell viability (MSG Cells) | effect of silencing of CHOP with siRNA on death caused by the peptide (U87 cells) | susceptibility of cell line [1] | susceptibility of cell line [2] | susceptibility of cell line [3] | susceptibility of cell line (C6 (rat glioblastoma)) | susceptibility of cell line (U87 (human glioblastoma)) | susceptibility of cell line (Mel501 (human melanoma)) | susceptibility of cell line [4] | cell killing in combination with temozolomide (proportion of cells with apoptotic nuclei) (U87 glioblastoma cells) | cell viability ([5]; 3 μM, 3-5 days) | expression of the survival protein BCL2 (BCL2 survival protein) | cell viability (U373) | proportion of viable cells (lower left quadrant) [6] [%] | dying cell proportion (lower right and upper right quadrants) ([6]; treated, controls 9%) [%] | apoptotic death [7] | cell viability ([5]; 5 days treatment, concentrations (μM) per FIG. 20) |
| --- | --- | --- | --- | --- | --- | --- | --- | --- | --- | --- | --- | --- | --- | --- | --- | --- | --- | --- | --- | --- |
| TAT-d/n-ATF5: TAT-linked dominant-negative ATF5 peptide, recombinant; probably SEQ ID NO: 17 (protein) MGSSHHHHHHSSGLVPRGSHMLEYGRKKRRQRRRYPYDVPDYAMASMTGGQQMGRDPDLEQRAEELARENEELLEKEAEELEQENAELEGECQGLEARNRELRERAESV | elevation of CHOP in all cases | greatly reduces expression of endogenous ATF5 | promoted apoptosis in a dose-dependent fashion | decreases viability | partially protects | susceptible | susceptible | susceptible | susceptible | susceptible | susceptible | susceptible | synergizes with temozolomide (TMZ) to kill | decreases viability | down-regulates BCL2 survival protein | decreases viability | 58 | 36 | – | – |
| synthetic PEN-d/n-ATF5: chemically synthesized Penetratin-linked dominant-negative ATF5 peptide; probably SEQ ID NO: 19 (peptide) RQIKIWFQNRRMKWKKLEQRAEELARENEELLEKEAEELEQENAELEGECQGLEARNRELKERAESV | – | – | – | – | – | – | – | – | – | – | – | – | – | – | – | – | – | – | promotes apoptotic death | decreases cell viability |
